The Human Domainome abundance scans (Beltran et al. 2025)
± gives the uncertainty stated by the source.

Experiment: abundance fitness (aPCA) (normalised: wild type 0, dead -1); higher = more abundant; growth selection in yeast, the domain comes from the species named
Conditions: Homo sapiens

Substance | abundance fitness
Transcription factor SOX-4 I72D, Q06945 | -0.595 ± 0.46
Transcription factor SOX-4 K101T, Q06945 | -0.029 ± 0.065
Transcription factor SOX-4 M84L, Q06945 | 0.014 ± 0.055
Transcription factor SOX-4 Y123H, Q06945 | -0.03 ± 0.12

Same assay, conditions: Saccharomyces cerevisiae (strain ATCC 204508 / S288c)

Substance | abundance fitness
E3 ubiquitin-protein ligase RSP5 R346D, P39940 | 0.307 ± 0.057
E3 ubiquitin-protein ligase RSP5 T358S, P39940 | -0.028 ± 0.058
E3 ubiquitin-protein ligase RSP5 G336I, P39940 | -1.3 ± 0.13
E3 ubiquitin-protein ligase RSP5 A347Y, P39940 | -0.128 ± 0.063
E3 ubiquitin-protein ligase RSP5 H352S, P39940 | -0.297 ± 0.051
E3 ubiquitin-protein ligase RSP5 V360F, P39940 | 0.058 ± 0.11
E3 ubiquitin-protein ligase RSP5 T356H, P39940 | -0.483 ± 0.23
E3 ubiquitin-protein ligase RSP5 G331E, P39940 | -0.127 ± 0.049
E3 ubiquitin-protein ligase RSP5 G331N, P39940 | -0.01 ± 0.1
E3 ubiquitin-protein ligase RSP5 V350A, P39940 | -0.275 ± 0.043
E3 ubiquitin-protein ligase RSP5 G336C, P39940 | -0.427 ± 0.063
E3 ubiquitin-protein ligase RSP5 L333V, P39940 | -0.447 ± 0.05
E3 ubiquitin-protein ligase RSP5 R364D, P39940 | 0.126 ± 0.067
E3 ubiquitin-protein ligase RSP5 T327A, P39940 | -0.049 ± 0.046
E3 ubiquitin-protein ligase RSP5 E338M, P39940 | -0.402 ± 0.047
E3 ubiquitin-protein ligase RSP5 T342L, P39940 | -0.074 ± 0.065
E3 ubiquitin-protein ligase RSP5 W359P, P39940 | -0.447 ± 0.059
E3 ubiquitin-protein ligase RSP5 R364S, P39940 | 0.087 ± 0.05
E3 ubiquitin-protein ligase RSP5 V350Q, P39940 | -0.295 ± 0.066
E3 ubiquitin-protein ligase RSP5 R355Q, P39940 | -0.013 ± 0.069
E3 ubiquitin-protein ligase RSP5 T357A, P39940 | -0.304 ± 0.048
E3 ubiquitin-protein ligase RSP5 G331Y, P39940 | -0.202 ± 0.17
E3 ubiquitin-protein ligase RSP5 Q365L, P39940 | 0.033 ± 0.058
E3 ubiquitin-protein ligase RSP5 R340S, P39940 | -0.039 ± 0.057
E3 ubiquitin-protein ligase RSP5 S335E, P39940 | -0.031 ± 0.053

Substance | abundance fitness
E3 ubiquitin-protein ligase RSP5 T327R, P39940 | -0.067 ± 0.044
E3 ubiquitin-protein ligase RSP5 F341W, P39940 | -0.064 ± 0.056
E3 ubiquitin-protein ligase RSP5 W337L, P39940 | -0.53 ± 0.06
E3 ubiquitin-protein ligase RSP5 R340T, P39940 | -0.108 ± 0.062
E3 ubiquitin-protein ligase RSP5 E332H, P39940 | -0.551 ± 0.13
E3 ubiquitin-protein ligase RSP5 R364P, P39940 | 0.072 ± 0.052
E3 ubiquitin-protein ligase RSP5 V360E, P39940 | -0.154 ± 0.053
E3 ubiquitin-protein ligase RSP5 R346V, P39940 | 0.056 ± 0.049
E3 ubiquitin-protein ligase RSP5 V360T, P39940 | -0.095 ± 0.064
E3 ubiquitin-protein ligase RSP5 F341R, P39940 | -0.053 ± 0.045
E3 ubiquitin-protein ligase RSP5 Q365G, P39940 | 0.052 ± 0.046
E3 ubiquitin-protein ligase RSP5 W337D, P39940 | -0.504 ± 0.074
E3 ubiquitin-protein ligase RSP5 E338P, P39940 | -0.874 ± 0.083
E3 ubiquitin-protein ligase RSP5 F349S, P39940 | -0.83 ± 0.057
E3 ubiquitin-protein ligase RSP5 V350M, P39940 | 0.109 ± 0.085
E3 ubiquitin-protein ligase RSP5 Q366A, P39940 | 0.047 ± 0.13
E3 ubiquitin-protein ligase RSP5 T327W, P39940 | -0.17 ± 0.053
E3 ubiquitin-protein ligase RSP5 T358R, P39940 | -0.781 ± 0.046
E3 ubiquitin-protein ligase RSP5 P334G, P39940 | -0.629 ± 0.044
E3 ubiquitin-protein ligase RSP5 T356V, P39940 | -0.124 ± 0.052
E3 ubiquitin-protein ligase RSP5 H352C, P39940 | -0.384 ± 0.067
E3 ubiquitin-protein ligase RSP5 T354Q, P39940 | -0.165 ± 0.056
E3 ubiquitin-protein ligase RSP5 N353Q, P39940 | -0.212 ± 0.052
E3 ubiquitin-protein ligase RSP5 G325M, P39940 | 0.137 ± 0.095
E3 ubiquitin-protein ligase RSP5 T354P, P39940 | -1.07 ± 0.078

Substance | abundance fitness
E3 ubiquitin-protein ligase RSP5 W337E, P39940 | -0.525 ± 0.066
E3 ubiquitin-protein ligase RSP5 T327E, P39940 | 0.105 ± 0.056
E3 ubiquitin-protein ligase RSP5 S335N, P39940 | -0.015 ± 0.084
E3 ubiquitin-protein ligase RSP5 R346G, P39940 | 0.016 ± 0.044
E3 ubiquitin-protein ligase RSP5 S335L, P39940 | -0.202 ± 0.046
E3 ubiquitin-protein ligase RSP5 W359Q, P39940 | -0.278 ± 0.08
E3 ubiquitin-protein ligase RSP5 F341Y, P39940 | 0.048 ± 0.054
E3 ubiquitin-protein ligase RSP5 P334F, P39940 | -0.889 ± 0.083
E3 ubiquitin-protein ligase RSP5 R363L, P39940 | -0.377 ± 0.047
E3 ubiquitin-protein ligase RSP5 P343S, P39940 | 0.07 ± 0.056
E3 ubiquitin-protein ligase RSP5 T357P, P39940 | -0.77 ± 0.073
E3 ubiquitin-protein ligase RSP5 T326R, P39940 | -0.068 ± 0.042
E3 ubiquitin-protein ligase RSP5 T354K, P39940 | -0.147 ± 0.082
E3 ubiquitin-protein ligase RSP5 G325S, P39940 | 0.069 ± 0.094
E3 ubiquitin-protein ligase RSP5 E338G, P39940 | -0.454 ± 0.045
E3 ubiquitin-protein ligase RSP5 G336D, P39940 | -0.368 ± 0.07
E3 ubiquitin-protein ligase RSP5 R355H, P39940 | -0.101 ± 0.063
E3 ubiquitin-protein ligase RSP5 R340K, P39940 | 0.133 ± 0.081
E3 ubiquitin-protein ligase RSP5 V350R, P39940 | -0.546 ± 0.042
E3 ubiquitin-protein ligase RSP5 Y348L, P39940 | -0.504 ± 0.068
E3 ubiquitin-protein ligase RSP5 E344G, P39940 | -0.038 ± 0.045
E3 ubiquitin-protein ligase RSP5 A347W, P39940 | -0.316 ± 0.047
E3 ubiquitin-protein ligase RSP5 D361Y, P39940 | -0.594 ± 0.062
E3 ubiquitin-protein ligase RSP5 T326L, P39940 | -0.023 ± 0.048
E3 ubiquitin-protein ligase RSP5 D361S, P39940 | -0.409 ± 0.054

Substance | abundance fitness
E3 ubiquitin-protein ligase RSP5 H352R, P39940 | -0.253 ± 0.046
E3 ubiquitin-protein ligase RSP5 W337K, P39940 | -0.713 ± 0.073
E3 ubiquitin-protein ligase RSP5 E332Q, P39940 | -0.359 ± 0.061
E3 ubiquitin-protein ligase RSP5 S328P, P39940 | -0.025 ± 0.064
E3 ubiquitin-protein ligase RSP5 R363N, P39940 | -0.357 ± 0.069
E3 ubiquitin-protein ligase RSP5 R364E, P39940 | 0.129 ± 0.052
E3 ubiquitin-protein ligase RSP5 G329D, P39940 | 0.149 ± 0.066
E3 ubiquitin-protein ligase RSP5 W359V, P39940 | -0.416 ± 0.045
E3 ubiquitin-protein ligase RSP5 V350W, P39940 | -0.359 ± 0.057
E3 ubiquitin-protein ligase RSP5 T342M, P39940 | -0.327 ± 0.17
E3 ubiquitin-protein ligase RSP5 E338K, P39940 | -0.463 ± 0.049
E3 ubiquitin-protein ligase RSP5 L330H, P39940 | -0.048 ± 0.067
E3 ubiquitin-protein ligase RSP5 L333E, P39940 | -0.64 ± 0.075
E3 ubiquitin-protein ligase RSP5 P362H, P39940 | -0.905 ± 0.28
E3 ubiquitin-protein ligase RSP5 G329Y, P39940 | -0.337 ± 0.39
E3 ubiquitin-protein ligase RSP5 P362E, P39940 | -0.723 ± 0.076
E3 ubiquitin-protein ligase RSP5 A347D, P39940 | -0.025 ± 0.084
E3 ubiquitin-protein ligase RSP5 W337Y, P39940 | -0.366 ± 0.1
E3 ubiquitin-protein ligase RSP5 G331L, P39940 | -0.095 ± 0.046
E3 ubiquitin-protein ligase RSP5 T357S, P39940 | -0.1 ± 0.062
E3 ubiquitin-protein ligase RSP5 L333A, P39940 | -0.648 ± 0.05
E3 ubiquitin-protein ligase RSP5 T357F, P39940 | -1.11 ± 0.28
E3 ubiquitin-protein ligase RSP5 S328V, P39940 | -0.07 ± 0.055
E3 ubiquitin-protein ligase RSP5 Q339S, P39940 | -0.138 ± 0.047
